PMC5614548, “Effects of isoleucine 135 side chain length on the cofactor donor-acceptor distance within F420H2:NADP^+ oxidoreductase: A kinetic analysis^” (Biochemistry and Biophysics Reports, 2016)
Where two headings read alike, the source gives them in different places.

Legend:
[1] = target: Fno (F420H2:NADP+ oxidoreductase) (Archaeoglobus fulgidus, UniProt O29370, I135A); test: tryptophan fluorescence titration, fit with Hill coefficient; format: binding
Excerpt: (§1) tryptophan fluorescence titration, fit with Hill coefficient on Fno (F420H2:NADP+ oxidoreductase)

[2] = target: Fno (F420H2:NADP+ oxidoreductase) (Archaeoglobus fulgidus, UniProt O29370, I135G); test: as above; format: binding
Excerpt: as §1

[3] = target: Fno (F420H2:NADP+ oxidoreductase) (Archaeoglobus fulgidus, UniProt O29370, I135V); test: as above; format: binding
Excerpt: as §1

[4] = substrate: NC(=O)C1=CN([C@@H]2O[C@H](COP(=O)(O)OP(=O)(O)OC[C@H]3O[C@@H](n4cnc5c(N)ncnc54)[C@H](OP(=O)(O)O)[C@@H]3O)[C@@H](O)[C@H]2O)C=CC1; test: purified protein; format: biochemical, Archaeoglobus fulgidus; conditions: 25 µM FO, 50 mM MES/NaOH pH 6.5, 22 °C, phase 1 of biphasic fit, negative cooperativity
[5] = substrate: O=c1nc2n(C[C@H](O)[C@H](O)[C@H](O)CO)c3cc(O)ccc3cc-2c(=O)[nH]1; test: purified protein; format: biochemical, Archaeoglobus fulgidus; conditions: 600 µM NADPH, 50 mM MES/NaOH pH 6.5, 22 °C

Molecule | Km [5] | kcat [5] | kcat/Km [5] | also measured
NC(=O)C1=CN([C@@H]2O[C@H](COP(=O)(O)OP(=O)(O)OC[C@H]3O[C@@H](n4cnc5c(N)ncnc54)[C@H](OP(=O)(O)O)[C@@H]3O)[C@@H](O)[C@H]2O)C=CC1 [NADPH] |  |  |  | Kd ([1]; read-out: Kd^NADPH): 6.7 ± 0.7 nM; Kd ([2]; read-out: Kd^NADPH): 1.5 ± 0.1 nM; Kd ([3]; read-out: Kd^NADPH): 7.4 ± 1.1 nM
O=c1nc2n(C[C@H](O)[C@H](O)[C@H](O)CO)c3cc(O)ccc3cc-2c(=O)[nH]1 [FO] |  |  |  | Kd ([1]; read-out: Kd^FO): 5.6 ± 0.2 nM; Kd ([2]; read-out: Kd^FO): 6.9 ± 0.3 nM; Kd ([3]; read-out: Kd^FO): 7.5 ± 0.9 nM
Fno (F420H2:NADP+ oxidoreductase) (Archaeoglobus fulgidus DSM 4304; I135V) (protein) MRVALLGGTGNLGKGLALRLATLGHEIVVGSRREEKAEAKAAEYRRIAGDASITGMKNEDAAEACDIAVLTIPWEHAIDTARDLKNILREKIVVSPLVPVSRGAKGFTYSSERSAAEIVAEVLESEKVVSALHTVPAARFANLDEKFDWDVPVCGDDDESKKVVMSLISEIDGLRPLDAGPLSNSRLVESLTPLILNIMRFNGMGELGIKFL | 3.7 ± 0.4 µM | 1.8 ± 0.1 s⁻¹ | 490000 ± 55000 M⁻¹ s⁻¹ | Km [4]: 0.7 ± 0.1 µM; kcat [4]: 1.5 ± 0.09 s⁻¹; kcat/Km [4]: 2.1e+06 ± 340000 M⁻¹ s⁻¹
Fno (F420H2:NADP+ oxidoreductase) (Archaeoglobus fulgidus DSM 4304; I135G) (protein) MRVALLGGTGNLGKGLALRLATLGHEIVVGSRREEKAEAKAAEYRRIAGDASITGMKNEDAAEACDIAVLTIPWEHAIDTARDLKNILREKIVVSPLVPVSRGAKGFTYSSERSAAEIVAEVLESEKVVSALHTGPAARFANLDEKFDWDVPVCGDDDESKKVVMSLISEIDGLRPLDAGPLSNSRLVESLTPLILNIMRFNGMGELGIKFL | 3.6 ± 0.4 µM | 0.7 s⁻¹ | 200000 M⁻¹ s⁻¹ | 
Fno (F420H2:NADP+ oxidoreductase) (Archaeoglobus fulgidus DSM 4304; I135A) (protein) MRVALLGGTGNLGKGLALRLATLGHEIVVGSRREEKAEAKAAEYRRIAGDASITGMKNEDAAEACDIAVLTIPWEHAIDTARDLKNILREKIVVSPLVPVSRGAKGFTYSSERSAAEIVAEVLESEKVVSALHTAPAARFANLDEKFDWDVPVCGDDDESKKVVMSLISEIDGLRPLDAGPLSNSRLVESLTPLILNIMRFNGMGELGIKFL | 3.6 ± 0.5 µM | 1.6 ± 0.1 s⁻¹ | 450000 ± 66000 M⁻¹ s⁻¹ | 
